Measurements reported in patent US7148202.

Target: FGF receptor on COS cells
Experiment: cell-based or functional assay

“FGF2 display phage MF2/1G3 (FGF2-pIII fusion on M13 type 3 phage) (from UniProt P09038 2-155; P69168 19-424)” gave a transduction efficiency (GFP positive autofluorescent COS cells) against control phage MEGFP3 of 10 fold.

With “free FGF2 (non-biotinylated) (from UniProt P09038 2-155) (ligand)” the phagemid particle-dependent transfection of COS-1 cells (fold molar excess) was 100.
